For series [1], the target named is T1, SUVH5 SRA domain (Arabidopsis, UniProt O82175 362-528).
T1 sequence: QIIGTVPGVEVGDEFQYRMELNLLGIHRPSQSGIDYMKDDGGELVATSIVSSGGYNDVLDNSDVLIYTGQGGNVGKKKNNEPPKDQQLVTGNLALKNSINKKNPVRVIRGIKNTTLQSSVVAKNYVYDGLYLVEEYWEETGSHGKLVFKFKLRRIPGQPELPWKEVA
The series is described as follows: ITC; N fixed to 0.5; endothermic; 3-fold higher concentrations; ITC: 40 mM Tris-HCl pH 7.5, 50 mM NaCl, 2 mM b-mercaptoethanol, 25 C; FP: 20 mM Tris-HCl pH 7.5, 50 mM NaCl, 1 mM DTT, 20 C; EMSA: 25 mM Tris-HCl pH 7.5, 5% glycerol, 60 mM NaCl, 10 mM MgCl2, 0.4 mg/mL BSA, 2 mM DTT. The conditions noted are these: protein: recombinant; tags: His6-SUMO, cleaved with Ulp1; chain copies: 2; self-complementary, 2 copies of strand.

The target of series [2] is T1, SUVH5 SRA domain. The series is described as follows: X-ray crystal structure (2.6 A); 2:1 complex, dual 5hmC flip-out; ITC: 40 mM Tris-HCl pH 7.5, 50 mM NaCl, 2 mM b-mercaptoethanol, 25 C; FP: 20 mM Tris-HCl pH 7.5, 50 mM NaCl, 1 mM DTT, 20 C; EMSA: 25 mM Tris-HCl pH 7.5, 5% glycerol, 60 mM NaCl, 10 mM MgCl2, 0.4 mg/mL BSA, 2 mM DTT. Conditions: protein: recombinant; tags: His6-SUMO, cleaved with Ulp1; chain copies: 2; self-complementary, 2 copies of strand; 3' T overhang.

Series [3] concerns the target T1, SUVH5 SRA domain. As to the kind of experiment: ITC; N = 0.48; ITC: 40 mM Tris-HCl pH 7.5, 50 mM NaCl, 2 mM b-mercaptoethanol, 25 C; FP: 20 mM Tris-HCl pH 7.5, 50 mM NaCl, 1 mM DTT, 20 C; EMSA: 25 mM Tris-HCl pH 7.5, 5% glycerol, 60 mM NaCl, 10 mM MgCl2, 0.4 mg/mL BSA, 2 mM DTT. Conditions: protein: recombinant; tags: His6-SUMO, cleaved with Ulp1; chain copies: 2; self-complementary, 2 copies of strand.

Series [4] addresses T1, SUVH5 SRA domain. The series is described as follows: ITC; N fixed to 0.5; 3-fold higher concentrations; ITC: 40 mM Tris-HCl pH 7.5, 50 mM NaCl, 2 mM b-mercaptoethanol, 25 C; FP: 20 mM Tris-HCl pH 7.5, 50 mM NaCl, 1 mM DTT, 20 C; EMSA: 25 mM Tris-HCl pH 7.5, 5% glycerol, 60 mM NaCl, 10 mM MgCl2, 0.4 mg/mL BSA, 2 mM DTT. The conditions noted are these: protein: recombinant; tags: His6-SUMO, cleaved with Ulp1; chain copies: 2; self-complementary, 2 copies of strand.

The target of series [5] is T1, SUVH5 SRA domain. As to the kind of experiment: ITC; N = 0.52; ITC: 40 mM Tris-HCl pH 7.5, 50 mM NaCl, 2 mM b-mercaptoethanol, 25 C; FP: 20 mM Tris-HCl pH 7.5, 50 mM NaCl, 1 mM DTT, 20 C; EMSA: 25 mM Tris-HCl pH 7.5, 5% glycerol, 60 mM NaCl, 10 mM MgCl2, 0.4 mg/mL BSA, 2 mM DTT. Conditions: protein: recombinant; tags: His6-SUMO, cleaved with Ulp1; chain copies: 2; self-complementary, 2 copies of strand.

A further series has as its target T2, UHRF1 SRA domain (mammalian? (species ), UniProt Q96T88-2 427-630).
T2 sequence: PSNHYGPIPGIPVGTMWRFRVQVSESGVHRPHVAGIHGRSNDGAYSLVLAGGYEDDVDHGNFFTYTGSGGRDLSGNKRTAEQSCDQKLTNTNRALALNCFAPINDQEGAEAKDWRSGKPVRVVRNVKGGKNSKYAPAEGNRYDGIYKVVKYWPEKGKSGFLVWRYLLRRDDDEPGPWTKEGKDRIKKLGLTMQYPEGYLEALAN
The series is described as follows: fluorescence polarization; 20 C; ITC: 40 mM Tris-HCl pH 7.5, 50 mM NaCl, 2 mM b-mercaptoethanol, 25 C; FP: 20 mM Tris-HCl pH 7.5, 50 mM NaCl, 1 mM DTT, 20 C; EMSA: 25 mM Tris-HCl pH 7.5, 5% glycerol, 60 mM NaCl, 10 mM MgCl2, 0.4 mg/mL BSA, 2 mM DTT. The conditions noted are these: protein: recombinant; tags: His6-SUMO, cleaved with Ulp1; label: 5'-6FAM.

Series [6] has as its target T1, SUVH5 SRA domain. The series is described as follows: ITC; ITC: 40 mM Tris-HCl pH 7.5, 50 mM NaCl, 2 mM b-mercaptoethanol, 25 C; FP: 20 mM Tris-HCl pH 7.5, 50 mM NaCl, 1 mM DTT, 20 C; EMSA: 25 mM Tris-HCl pH 7.5, 5% glycerol, 60 mM NaCl, 10 mM MgCl2, 0.4 mg/mL BSA, 2 mM DTT. Conditions: protein: recombinant; tags: His6-SUMO, cleaved with Ulp1; chain copies: 2.

We go through seven molecules from PMC4740795, “Mechanistic insights into the recognition of 5-methylcytosine oxidation derivatives by the SUVH5 SRA domain”.

B1: fully-5fCG duplex (ITC) (dsDNA)
DNA 1: CAGCTCGAGCTG
DNA 2: CAGCTCGAGCTG
modifications: 5fC at central CG, both strands
With B1, in the series with SUVH5 SRA domain [1], the dissociation constant (Kd) was approximately 125 µM.

B2: fully-5hmCG 10-mer with 3'-T overhang (crystal) (dsDNA)
DNA 1: ACTACGTAGTT
DNA 2: ACTACGTAGTT
modifications: 5hmC at position 5, both strands
As for B2, the binding result with SUVH5 SRA domain [2] is “binds”.

B3: fully-5mCG duplex (ITC) (dsDNA)
DNA 1: CAGCTCGAGCTG
DNA 2: CAGCTCGAGCTG
modifications: 5mC at central CG, both strands
As to B3, in the series with SUVH5 SRA domain [3], the Kd turned out to be 1.2 ± 0.09 µM.

B4: fully-5caCG duplex (ITC) (dsDNA)
DNA 1: CAGCTCGAGCTG
DNA 2: CAGCTCGAGCTG
modifications: 5caC at central CG, both strands
Regarding B4, the Kd with SUVH5 SRA domain [4] is approximately 150 µM.

B5: fully-5hmCG duplex (ITC) (dsDNA)
DNA 1: CAGCTCGAGCTG
DNA 2: CAGCTCGAGCTG
modifications: 5hmC at central CG, both strands
In the case of B5, in the series with SUVH5 SRA domain [5], the equilibrium dissociation constant (Kd) was found to be 1.5 ± 0.12 µM.

B6: hemi-5mCG 12-mer (dsDNA)
DNA 1: CCATGCGCTGAC
DNA 2: GTCAGCGCATGG
modifications: X = 5mC, one strand
For B6, the Kd in the series with UHRF1 SRA domain is 0.35 µM.

B7: hemi-5hmCG duplex (ITC) (dsDNA)
DNA 1: CCATGCGCTGAC
DNA 2: GTCAGCGCATGG
modifications: 5hmC at central CG, one strand
Consider B7, for which the dissociation constant Kd with SUVH5 SRA domain [6] was 7.6 ± 0.6 µM.
